This passage reports Kd results from patent US5972599, “High affinity nucleic acid ligands of cytokines” (NeXstar Pharmaceuticals, Inc.).

A word on the Kd: it is the free concentration of one partner at which half of the binding sites on the other are occupied at equilibrium, for simple one-to-one binding. A high value points to lower affinity.

Sequences and labels used below:
B1: TNF 7C (ssRNA)
RNA: GGGAGCUCAGAAUAAACGCUCAACAGGUGGCACCGCCCUUCCAACACGGUGCGUUCGACAUGAGGCCCGGAUCCGGC
B2: TNF 3A (ssRNA)
RNA: GGGAGCUCAGAAUAAACGCUCAAGAUCGACGCAUCGAGUCGCCUCAUCGCUCCUUCGACAUGAGGCCCGGAUCCGGC
B3: TNF 10C (ssRNA)
RNA: GGGAGCUCAGAAUAAACGCUCAACGCCGAGACCCACCUCAUAACACCGCUACCUUCGACAUGAGGCCCGGAUCCGGC
B4: TNF 12C (ssRNA)
RNA: GGGAGCUCAGAAUAAACGCUCAAGUCCGCAUGAUGCUUCGAACAGCAUACAACUUCGACAUGAGGCCCGGAUCCGGC
B5: TNF 11C (ssRNA)
RNA: GGGAGCUCAGAAUAAACGCUCAAUGAGGCGCGCCACAGGAUGGCCCUCAACCCUUCGACAUGAGGCCCGGAUCCGGC
B6: TNF 8A (ssRNA)
RNA: GGGAGCUCAGAAUAAACGCUCAACAGUGGAGGCUGUCCAAACCCACCCACCCCUUCGACAUGAGGCCCGGAUCCGGC
B7: TNF 21A (ssRNA)
RNA: GGGAGCUCAGAAUAAACGCUCAACGUCUAGGAACUGCGUCGCCUCAACAGCGCUUCGACAUGAGGCCCGGAUCCGGC
B8: TNF 15A (ssRNA)
RNA: GGGAGCUCAGAAUAAACGCUCAACGUCGAUCGCGUGCUGUAGCCUCAGGCACCUUCGACAUGAGGCCCGGAUCCGGC
B9: TNF 27A (ssRNA)
RNA: GGGAGCUCAGAAUAAACGCUCAAGUCGCUCGAUCGUUUCAUGUCCGUUCGACCUUCGACAUGAGGCCCGGAUCCGGC
B10: TNF 22A (ssRNA)
RNA: GGGAGCUCAGAAUAAACGCUCAAGUCGGAUGGUUUUGCGCGUUUCCCGUUCGACAUGAGGCCCGGAUCCGGC
B11: TNF 5C (ssRNA)
RNA: GGGAGCUCAGAAUAAACGCUCAACAGUCACGAACGUGCGCCGGAAGAACGCUCUUCGACAUGAGGCCCGGAUCCGGC
B12: TNF 6C (ssRNA)
RNA: GGGAGCUCAGAAUAAACGCUCAAUGUCGCACGUGUCCCGGCCCGCCCUACCCCUUCGACAUGAGGCCCGGAUCCGGC
B13: TNF 19A (ssRNA)
RNA: GGGAGCUCAGAAUAAACGCUCAAGUCGAUGCGCAGUCCGCCUCAGCUGCACUGUUCGACAUGAGGCCCGGAUCCGGC
B14: TNF 17A (ssRNA)
RNA: GGGAGCUCAGAAUAAACGCUCAAGGUCGAACUAGCGCUGGAGCGUGCGUUGGUUUCGACAUGAGGCCCGGAUCCGGC
B15: TNF 16A (ssRNA)
RNA: GGGAGCUCAGAAUAAACGCUCAAGGUGGAAGGCCUUUGAAGCCCGUACAUCUCCUUCGACAUGAGGCCCGGAUCCGGC
B16: TNF 17C (ssRNA)
RNA: GGGAGCUCAGAAUAAACGCUCAAGAUCGAAGUUGUCGUCCGCCUCAGCGACUCUUCGACAUGAGGCCCGGAUCCGGC
B17: TNF 26A (ssRNA)
RNA: GGGAGCUCAGAAUAAACGCUCAACCCUCGUGCGUGCGCUUGGAGCGUGGCGCAUUCGACAUGAGGCCCGGAUCCGGC

The target of one data set is T1, TNF-alpha (Homo sapiens, UniProt P01375 P01375:77-233). Nature of the data set: filter; class I. As to conditions: tags: Genzyme or R&D Systems; chain copies: 3 inferred.
T1 sequence (P01375 77-233, one chain of several): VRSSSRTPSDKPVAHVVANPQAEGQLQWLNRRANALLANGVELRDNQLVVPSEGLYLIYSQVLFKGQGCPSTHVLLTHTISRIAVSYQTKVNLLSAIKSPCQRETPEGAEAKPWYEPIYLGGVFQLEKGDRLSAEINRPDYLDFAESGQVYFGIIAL
B1: the Kd was found to be 297 nM.
Take B2: the Kd is 135 nM.
As for B3, the affinity, expressed as Kd, was 500 nM.
Still for that read-out and setting: for B4 the value was 690 nM; for B5, 140 nM.
Still for that read-out and setting: for B6 the value was 785 nM.

Another data set deals with T1, TNF-alpha. Nature of the data set: filter; no value shown, Kd above 1 uM per footnote; DPBS. As to conditions: tags: Genzyme or R&D Systems; chain copies: 3.
In turn, B7 yielded a Kd of more than 1000 nM.
B8 returned a Kd of more than 1000 nM.
On the same count and under the same terms, for B9 the value was more than 1000 nM.
On the same count and under the same terms, in the case of B10 it was more than 1000 nM; in that of B11, more than 1000 nM.
Still for that read-out and setting: in the case of B12 it was more than 1000 nM.
In turn, B13 had a Kd of more than 1000 nM.
The same measure, in the same setting: in the case of B14 it was more than 1000 nM; in that of B15, more than 1000 nM; in that of B16, more than 1000 nM.
On the same count and under the same terms, in the case of B17 it was more than 1000 nM.
